Laboratory results as given in article PMC4932919, “Structural and functional studies of the glycoside hydrolase family 3 β-glucosidase Cel3A from the moderately thermophilic fungus Rasamsonia emersonii” (Acta Crystallographica. Section D, Structural Biology, 2016).
Each block holds one molecule with its values, some of them ahead of it.

Legend:
HjCel3A = biological target: T1, HjCel3A (Trichoderma reesei, UniProt Q12715); assay: differential scanning calorimetry; assay type: binding; settings: 1000 µM; 1 mM glucose; 10 mM sodium acetate pH 5.0; Tm without glucose 77.6 °C; scan rate 200°C/h; irreversible unfolding
T1 construct: gene bgl1
T1 sequence (Q12715 20-744): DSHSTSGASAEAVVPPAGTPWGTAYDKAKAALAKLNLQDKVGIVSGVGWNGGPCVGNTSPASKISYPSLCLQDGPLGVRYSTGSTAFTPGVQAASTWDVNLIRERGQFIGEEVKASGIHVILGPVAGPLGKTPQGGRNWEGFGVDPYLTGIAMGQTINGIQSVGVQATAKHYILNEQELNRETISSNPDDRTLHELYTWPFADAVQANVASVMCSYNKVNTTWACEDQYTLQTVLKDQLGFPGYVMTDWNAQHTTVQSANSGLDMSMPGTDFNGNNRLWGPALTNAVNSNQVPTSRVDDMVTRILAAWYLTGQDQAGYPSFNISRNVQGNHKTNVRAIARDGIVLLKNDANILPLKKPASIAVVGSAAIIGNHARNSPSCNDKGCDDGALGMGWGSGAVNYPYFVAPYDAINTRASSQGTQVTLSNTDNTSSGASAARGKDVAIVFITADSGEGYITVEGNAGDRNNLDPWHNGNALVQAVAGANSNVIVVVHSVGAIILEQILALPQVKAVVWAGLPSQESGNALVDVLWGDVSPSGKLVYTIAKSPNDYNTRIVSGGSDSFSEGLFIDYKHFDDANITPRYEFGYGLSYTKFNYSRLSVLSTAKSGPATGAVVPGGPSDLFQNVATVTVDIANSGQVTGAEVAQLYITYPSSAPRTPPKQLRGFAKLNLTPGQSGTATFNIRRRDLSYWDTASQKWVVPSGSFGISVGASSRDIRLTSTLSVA
Description: differential scanning calorimetry on HjCel3A

[1] = biological target: β-glucosidase Cel3A from Rasamsonia emersonii (Rasamsonia emersonii); assay: SEC; gel-filtration characterization of purified ReCel3A; conditions of this run not told
purified protein [2] = substrate: O=[N+]([O-])c1ccc(O[C@@H]2O[C@H](CO)[C@@H](O)[C@H](O)[C@H]2O)cc1; assay: purified protein; settings: 100 mM phosphate pH 5.0, 37°C
[3] = substrate: O=[N+]([O-])c1ccc(O[C@@H]2OC[C@@H](O)[C@H](O)[C@H]2O)c(Cl)c1; assay: chromogenic substrate kinetics (method for CNPX not described); assay type: biochemical, Rasamsonia emersonii; settings: conditions for CNPX not stated, other chromogenic substrates pH 5.0, 37°C
purified protein [4] = substrate: O=[N+]([O-])c1ccc(O[C@@H]2O[C@H](CO)[C@@H](O)[C@H](O)[C@H]2O)c(Cl)c1; assay: purified protein; assay type: biochemical, Rasamsonia emersonii; settings: 100 mM phosphate pH 5.0, 37°C

T m (°C) (HjCel3A): 79.0 °C
Molecule: OC[C@H]1OC(O)[C@H](O)[C@@H](O)[C@@H]1O (some centres unmarked) [glucose]

stoichiometry N [1]: 2
Molecule: β-glucosidase Cel3A from Rasamsonia emersonii (enzyme)

B1: ReCel3A (Rasamsonia emersonii) (protein)
chain: NLAYSPPFYPSPWANGQGDWAEAYQKAVQFVSQLTLAEKVNLTTGTGWEQDRCVGQVGSIPRLGFPGLCMQDSPLGVRDTDYNSAFPAGVNVAATWDRNLAYRRGVAMGEEHRGKGVDVQLGPVAGPLGRSPDAGRNWEGFAPDPVLTGNMMASTIQGIQDAGVIACAKHFILYEQEHFRQGAQDGYDISDSISANADDKTMHELYLWPFADAVRAGVGSVMCSYNQVNNSYACSNSYTMNKLLKSELGFQGFVMTDWGGHHSGVGSALAGLDMSMPGDIAFDSGTSFWGTNLTVAVLNGSIPEWRVDDMAVRIMSAYYKVGRDRYSVPINFDSWTLDTYGPEHYAVGQGQTKINEHVDVRGNHAEIIHEIGAASAVLLKNKGGLPLTGTERFVGVFGKDAGSNPWGVNGCSDRGCDNGTLAMGWGSGTANFPYLVTPEQAIQREVLSRNGTFTGITDNGALAEMAAAASQADTCLVFANADSGEGYITVDGNEGDRKNLTLWQGADQVIHNVSANCNNTVVVLHTVGPVLIDDWYDHPNVTAILWAGLPGQESGNSLVDVLYGRVNPGKTPFTWGRARDDYGAPLIVKPNNGKGAPQQDFTEGIFIDYRRFDKYNITPIYEFGFGLSYTTFEFSQLNVQPINAPPYTPASGFTKAAQSFGQPSNASDNLYPSDIERVPLYIYPWLNSTDLKASANDPDYGLPTEKYVPPNATNGDPQPIDPAGGAPGGNPSLYEPVARVTTIITNTGKVTGDEVPQLYVSLGGPDDAPKVLRGFDRITLAPGQQYLWTTTLTRRDISNWDPVTQNWVVTNYTKTIYVGNSSRNLPLQAPLKPYPGI
notes: secreted mature protein, signal peptide 1-20 removed; codon-optimized gene expressed in Hypocrea jecorina RL-P37 derivative with four cellulases deleted; no tag; N-glycosylated; dimer in solution; visible residues Asp21-Pro855
Km (purified protein [2]): 400 µM
kcat (purified protein [2]): 5.4 s⁻¹
kcat/Km (purified protein [2]): 14000 M⁻¹ s⁻¹
Km [3]: 660 µM
kcat [3]: 0.23 s⁻¹
kcat/Km [3]: 350 M⁻¹ s⁻¹
Km (purified protein [4]): 400 µM
kcat (purified protein [4]): 14 s⁻¹
kcat/Km (purified protein [4]): 36000 M⁻¹ s⁻¹
